From the supplement of paper PMC9732359
± gives the uncertainty stated by the source.

Assay: protein stability index of a GFP-peptide fusion (yeast GPS) (PSI 1-4); higher = more stable; sorted into four equal gates, so the index is relative within each strain
Summary of the method: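 Plasmids isolated from each sorting gate were PCR-amplified and Illumina-sequenced, and barcodes assigned the reads to strains. The gates, four of equal size, were set by GFP/Cherry fluorescence ratio on mid-log cultures in leucine-free medium. These cultures were yeast carrying a pooled library of tiled 17-residue yeast protein peptides fused downstream of GFP on a plasmid that also expresses Cherry. The protein stability index is the sum of every gate's read frequency times its gate number.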

Sequence	protein stability index (doa10∆)	protein stability index (pdr5∆)	protein stability index (san1∆)	protein stability index (ubr1∆)
KEEFIMMVNISVLISIP [PCI8]	1.43 ± 0.037	1.33 ± 0.033	1.57 ± 0.074	1.36 ± 0.031
HESTSRTDQYTIDNIDS [YMR129W/POM152]	2.84 ± 0.053	2.9 ± 0.053	2.9 ± 0.045	2.86 ± 0.045
IPDMSKNVELGWKPLRY [SNU114]	3.29 ± 0.24	3.23 ± 0.23	2.58 ± 0.23	3.22 ± 0.15
VKFYEIFNFDQLVEITE [SRB8]	1.24 ± 0.11	1.35 ± 0.088	1.58 ± 0.14	1.37 ± 0.058
TQSYNNQNTLKEISARR [POP1]	2.29 ± 0.041	2.48 ± 0.035	2.24 ± 0.063	2.78 ± 0.037
VAAASKILSNLVYQYKG [PRE2]	2.62 ± 0.088	2.5 ± 0.056	2.54 ± 0.078	2.49 ± 0.051
IPYSRNAPAWFKLSSES [RPS13]	1.93 ± 0.058	1.92 ± 0.045	2.12 ± 0.074	2.44 ± 0.052
RDRKLITDKGTVDGRLY [YJL039C/NUP192]	3.16 ± 0.12	3.22 ± 0.074	3.19 ± 0.071	3.17 ± 0.076
IDPDTKAPNAVVITFEK [RPB11]	–	3.22 ± 0.17	3.09 ± 0.094	2.93 ± 0.15
VVETITSLLNKVLKSGS [RRP42]	2.67 ± 0.11	2.37 ± 0.067	2.54 ± 0.085	2.45 ± 0.051
SERDSKDRYINGDKKVD [YMR129W/POM152]	3.08 ± 0.14	3.11 ± 0.092	3.15 ± 0.091	3.1 ± 0.1
VRDVAAQDFINAYASFL [RPS19A]	2.85 ± 0.078	2.5 ± 0.092	2.96 ± 0.22	2.21 ± 0.088
TNPSSIFGGAGGVPTTS [YOR098C/NUP1]	1.72 ± 0.066	2.36 ± 0.076	2.15 ± 0.086	1.59 ± 0.053
APIPKGRVKYTKRQKHF [POP1]	1.2 ± 0.13	1.9 ± 0.12	2.2 ± 0.13	1.77 ± 0.082
INIQKKLEPKEIVRDIL [SIR4]	3.05 ± 0.085	3.19 ± 0.12	2.85 ± 0.12	2.86 ± 0.11
NTVPQVTNFNSTNEDQN [SRB5]	2.83 ± 0.09	3.21 ± 0.056	3.02 ± 0.051	2.9 ± 0.051
YGLIRGLKFASFIFQYY [PRP8]	2.23 ± 0.11	2.52 ± 0.13	2.02 ± 0.093	2.36 ± 0.085
LGVASFHGTSTKANDKN [FAS2]	3.09 ± 0.079	2.95 ± 0.092	3.11 ± 0.075	3.02 ± 0.069
EKPAPVRTHMRNMIIVP [RPS15]	1.13 ± 0.064	1.17 ± 0.081	1.21 ± 0.19	1.14 ± 0.095
KHYLEDKLKVYKQAMNE [SNF5]	3.19 ± 0.093	3.18 ± 0.12	3.1 ± 0.1	3.08 ± 0.067
DRMAKYLHIRDKILQLN [PGD1]	2.32 ± 0.12	2.01 ± 0.079	1.76 ± 0.099	1.77 ± 0.049
AVALAASDLVLIVIDVV [SNU114]	2.08 ± 0.052	2.5 ± 0.06	2.75 ± 0.094	2.13 ± 0.05
QVENMKWDFAKDIKGYG [PRE4]	2.03 ± 0.078	1.54 ± 0.082	1.41 ± 0.16	1.68 ± 0.049
ARYYRTVAVLPPNWKYE [RPS13]	1.89 ± 0.044	2.1 ± 0.039	2.18 ± 0.051	1.92 ± 0.029
NVTFGSKKDPRILKNVS [YMR153W/NUP53]	2.81 ± 0.053	2.69 ± 0.056	2.81 ± 0.045	2.67 ± 0.035
EQTTGGNNKDLKNTMQY [RPB4]	3.24 ± 0.11	3.09 ± 0.082	2.65 ± 0.17	3.18 ± 0.19
EAASITRKSLNNAVRFS [ECM29]	2.59 ± 0.081	2.88 ± 0.084	2.86 ± 0.055	2.97 ± 0.048
